Experimental data published in the supplement of paper PMC12042874.
± gives the uncertainty stated by the source.

assay: amyloid nucleation score (Sup35N fusion, yeast selection) (log enrichment); library NNK2; higher = more nucleation; inactive = no reads after selection
Method in brief: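 Sup35N fusions to peptides of 20 random codons were expressed in psi-negative yeast, induced 24 hours with 100 μM copper sulfate, and grown 7 days at 30°C on medium lacking adenine and uracil. Input and output plasmid inserts were sequenced by Illumina. The nucleation score is the DiMSum log enrichment of output over input reads, centred on the mode score of non-aggregating sequences. Sequences with under 100 input reads were excluded.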

Row | Substance | amyloid nucleation score
1 | MYKVPTCPMFMVDNYYKLLN | inactive
2 | MYLAGHLDCGGY | 3.27 ± 0.055
3 | MYLPMVDVIEVSYSVNLERG | -0.311 ± 0.32
4 | MYLTCFWVGQDGKGRKDGGV | 5.62 ± 0.078
5 | MYRPINFITCSVRMFVVIVC | inactive
6 | MYSISVNMKNSFRNL | 0.566 ± 0.66
7 | MYVRVDFVFSNADRTWNPLK | 3.76 ± 0.08
8 | NADLMGIKSVKGS | -0.352 ± 1.1
9 | NAFGTSFCEIMRR | 1.22 ± 0.33
10 | NAKCNSTGKTCQFGCQYP | 1.51 ± 0.39
11 | NARFFNSFNSFM | 3 ± 0.076
12 | NASTRSGNYQFARHGLGYRR | 1.44 ± 0.17
13 | NAWDVTKSYQHVHSCSIMLV | inactive
14 | NCASWLYGSCACVGLLDLFE | -0.626 ± 0.41
15 | NCGRTNGLCPGYVCVSRLAW | 1.09 ± 0.21
16 | NCLYICVCGLCMFQKLRC | -0.246 ± 0.76
17 | NCPPFHRMYLTSIIGSLSDD | -0.306 ± 0.49
18 | NCVWNWRHWFTVVNSF | 1.95 ± 0.089
19 | NCWVVSQYTVVN | -0.77 ± 0.79
20 | NCYMSVLILVRLLGSHLKQS | -0.249 ± 1.1
21 | NDGYFVFDALFFHR | -2.34 ± 0.75
22 | NDHSVHINYLIIGAIHNTVN | 8.405 ± 0.065
23 | NDPGYLTTYI | -0.418 ± 0.27
24 | NDRSSDWCCIPSKLRWSRSG | 4.1 ± 0.057
25 | NDSFPRDNFVESWQACEILM | -0.78 ± 0.44

Row | Substance | amyloid nucleation score
26 | NDWCRGENITALWDGYGSGL | 0.597 ± 0.46
27 | NEFIEVALSLYRVNCQRNFI | -1.5 ± 0.53
28 | NEIARILEVRIGVEGYGGIF | -0.722 ± 0.3
29 | NELLNTWRLLSCPWRIWSLR | 0.67 ± 0.26
30 | NETCGYLNKNWLL | 0.04 ± 0.45
31 | NETLSTCCLYHFKG | 4.04 ± 0.046
32 | NEVRYLGTVLACQQRLHTWM | 1.06 ± 0.29
33 | NEYGLLYVFIPSSISPLADI | -1.5 ± 1.1
34 | NFDGSCKA | -0.853 ± 1.1
35 | NFHGDAYLESVRWIHIRNKR | -0.735 ± 0.48
36 | NFHGSASNCDAIVYANFTMH | 4.61 ± 0.086
37 | NFKNATIAFIGNMTMIVPRG | 8.291 ± 0.038
38 | NFKTI | inactive
39 | NFLDMEWTNLLSVMCVDFWS | 4.55 ± 0.062
40 | NFTSFAYFELEDALWSWRRL | 1.16 ± 0.35
41 | NFVRRSKSDKPCCYKTHSST | -0.747 ± 0.41
42 | NFVSISMGNIYMSQLGRWTA | 8.33 ± 0.051
43 | NFWMVPLIA | -0.541 ± 0.79
44 | NFYKEFGGMIAYLDKILREE | -1.13 ± 0.55
45 | NGAYNACNNTGYRTHAY | -0.818 ± 0.78
46 | NGDVTVMITF | 5.463 ± 0.031
47 | NGEASVGDFNVCLR | -0.478 ± 0.64
48 | NGGTMLMRLDRS | -0.216 ± 0.63
49 | NGPVQIASGGRRVPLLWEVL | 0.098 ± 0.79
50 | NGTLRAFVIKKVRIIDSRQV | 4.09 ± 0.076

Row | Substance | amyloid nucleation score
51 | NHRKVLMVVVLAVHNMGCCI | 3.75 ± 0.15
52 | NIFFNL | -0.13 ± 0.36
53 | NIFYRLNGFFQCPRSGLKGC | inactive
54 | NIIACMYKLEDSGRQFSMLE | 5.214 ± 0.046
55 | NINLA | inactive
56 | NIRLRFCFRQMEWHNRFRDC | 3.93 ± 0.069
57 | NISDFVKLVSYWVSVRCDLR | -0.305 ± 1.1
58 | NISDTSMISNGYCIN | 0.154 ± 0.63
59 | NISGATMEVVIYHDAVCESN | -0.361 ± 0.63
60 | NITMMGLVVTFVAISVRLSL | 0.959 ± 0.47
61 | NITSSNRGVSFEETGVNAGI | inactive
62 | NIYADNARVWLPRGDRGLEW | 0.799 ± 0.74
63 | NKATNKTDRVMKPSAKKDTE | -0.796 ± 0.39
64 | NKFDRFMFPRVR | -0.98 ± 0.35
65 | NKGSPCISCFVENDLYYLKY | -0.707 ± 0.42
66 | NKLWFWMGHTMSVEFDLIDN | inactive
67 | NKRATALCNLHF | inactive
68 | NKSLFMKFCVSLFRLGSYVT | -0.618 ± 0.48
69 | NLCHSNKCLNSRFSITHWV | 0.246 ± 0.8
70 | NLCTVVCSDTAVLWTALPRL | 9.478 ± 0.062
71 | NLECLYKLFPDFASLIRLCV | 0.185 ± 0.8
72 | NLFFVGPCELSRWLGFSNLQ | 5.874 ± 0.032
73 | NLFPSQTLYVFRHVGCCG | inactive
74 | NLHFSLNCMIFQPTASRLKH | 6.824 ± 0.031
75 | NLKRMFYVGCSIVSRKLIGR | -0.095 ± 0.5

Row | Substance | amyloid nucleation score
76 | NLNSFMVADYLYGDQVQKVF | 0.138 ± 0.8
77 | NLNYLVLTYDVSVWNVYVVL | 8.17 ± 0.046
78 | NLRGETRGVKLCLIWDVGRA | 0.078 ± 0.55
79 | NLRHKDGTGLLRSWMSIQRR | 0.436 ± 0.62
80 | NLRRCSHFHLACP | inactive
81 | NLVFCFDFQMSAPISGEMQY | 4.87 ± 0.098
82 | NLVFKPFCEPSVVSV | 0.099 ± 0.62
83 | NLVILFGKWRRFLFAQWNWF | inactive
84 | NLYAPGSIYSASFFRVMTLG | -1.04 ± 0.48
85 | NMFTETDRILVLFIRCLVDC | 0.305 ± 1
86 | NMGIRRFKFYIVNA | -0.965 ± 0.78
87 | NMGSYD | inactive
88 | NMKSWGSVV | -0.145 ± 0.79
89 | NMMGMAYSV | 0.063 ± 1.1
90 | NMMISCVNTLADDVFRGGFV | -1.33 ± 0.31
91 | NMTVFT | -0.202 ± 0.22
92 | NMVLWWPIMYHLAWRLGHDV | -0.137 ± 0.38
93 | NMWLCNGSGRHRFWLR | 0.269 ± 0.51
94 | NMYNLGFLSYYLKISGYLLD | -1.85 ± 1
95 | NNCNSSSSFIIPVAFTSVIN | -1.67 ± 0.61
96 | NNLLRYSVFNI | inactive
97 | NNMINDGNSMV | 0.026 ± 0.39
98 | NNSYIRLS | -0.883 ± 0.45
99 | NNVANW | 0.569 ± 0.48
100 | NNWYQTGSVAEASIEPSSMQ | 1.6 ± 0.41

Row | Substance | amyloid nucleation score
101 | NQALTTSPHSYIRFSCTCMF | 3.89 ± 0.14
102 | NQMCIATFHHMAYT | 2.87 ± 0.086
103 | NQNNDHSTWSIFKLCEVGCL | 8.986 ± 0.045
104 | NQWSLRGGYWPVVLVCFAWM | inactive
105 | NRDFMCESVRNCTLALMIGS | inactive
106 | NRDTM | -1.13 ± 0.37
107 | NRHWRFG | 2.7 ± 0.11
108 | NRKYTILVLDLLEGSLCARE | 0.599 ± 0.42
109 | NRMEYV | 1.02 ± 0.23
110 | NRNTTFLNYF | 1.94 ± 0.25
111 | NRQRRPRLVDKYGASRGVVY | 3.31 ± 0.11
112 | NRRMRKAEPLP | 0.644 ± 0.81
113 | NRTFSQRSVRLVSCPLLSKA | inactive
114 | NRTSYQNLIDNATTVSIMF | 1.55 ± 0.22
115 | NRYTLDVVNFSNNYSISSNR | 1.76 ± 0.12
116 | NRYVFLGHCVPVRGATHFLV | 0.173 ± 1.1
117 | NSAKKLRRPGATCPGQDGYT | 0.864 ± 0.41
118 | NSFFGLTVSKEEYLCFFYMF | inactive
119 | NSGHYFKDKSWCQMRS | 0.615 ± 0.66
120 | NSICSNLDDSCEAKRTSRFH | -0.113 ± 0.65
121 | NSIRSKDSDLRRYNPLPSTA | 4.46 ± 0.083
122 | NSITSRYNGTDGPESVSQ | -0.299 ± 0.79
123 | NSLMSFWVSVV | 0.208 ± 0.34
124 | NSLVAVSLSAWWKPGDGSFS | 6.29 ± 0.085
125 | NSMNVEHNMYNLFIYMPSFV | 7.065 ± 0.07

Row | Substance | amyloid nucleation score
126 | NSNFCCVGLCTNFAWFVCLM | 8.44 ± 0.064
127 | NSRSLTDTHDCMVTGWATRH | -0.159 ± 0.45
128 | NSVDYSWCCNTSRIRMLVNR | 1.2 ± 0.1
129 | NSYTFLNT | inactive
130 | NSYVKVHSIVG | inactive
131 | NSYWWFANK | 2.54 ± 0.08
132 | NTCGMRSLGKTFRIVSSLGS | 0.285 ± 0.43
133 | NTFGLEILRGWSYVCLGRRR | 5.323 ± 0.052
134 | NTGGS | -0.51 ± 0.61
135 | NTHGR | 4.61 ± 0.073
136 | NTIEGPRYYGTFAISNGVTQ | 0.824 ± 0.48
137 | NTLKVQIV | 2.94 ± 0.075
138 | NTNVCSSRRNPVCMMVEVVR | inactive
139 | NTVRRVCFAVVEMSASIMDG | 0.738 ± 0.42
140 | NVCLGFFPD | 0.282 ± 0.8
141 | NVDRRQGETWSNPYDLMRRL | 0.291 ± 0.19
142 | NVLGSRLKLMNEGIDLALIK | 6.38 ± 0.069
143 | NVLSRYYQPYMAPPENKAWD | -0.277 ± 1
144 | NVLSWKHMRAKGVNWFGGWV | -0.066 ± 0.27
145 | NVLWVDSSLFRNLRPTSERE | 0.276 ± 1
146 | NVMSDYTFANTSITSCCY | -1.26 ± 0.64
147 | NVQRI | -0.399 ± 0.55
148 | NVRTYCGFKSSNIRRWVSRH | inactive
149 | NVTGYFSSYKVVGRMESSYV | 1.73 ± 0.19
150 | NVVFRFVVEYNLWWLSVPDY | -0.578 ± 1.1

Row | Substance | amyloid nucleation score
151 | NVVTGVASILWGQDHNKSLV | 0.641 ± 0.74
152 | NVWNLQLYPTATCAKYNGAV | 4.13 ± 0.045
153 | NVYIKRIWVPFSP | -0.173 ± 0.36
154 | NWGNDSMRRPCCG | 2 ± 0.088
155 | NWGWSAILKPLRFAVFRPWN | 0.336 ± 0.6
156 | NWIPSI | -0.817 ± 0.41
157 | NWSFASKVGLQMSKHAVTV | 0.13 ± 0.42
158 | NWVNQTS | -1.6 ± 0.48
159 | NYDGCRWWW | inactive
160 | NYKRFCSCMLDH | -0.665 ± 0.63
161 | NYMRVNWLLFSSSQPVICVG | 0.107 ± 0.79
162 | NYRYLLFTSAVDRLQA | -0.117 ± 0.21
163 | NYSDFVVMTRSVLFWYCDQR | -0.424 ± 0.26
164 | NYSDWRVSTEIRSMGRYRPH | 0.069 ± 0.65
165 | NYSGLDERPVWVFWYLVFEY | -1.09 ± 1.1
166 | NYSGYLLNASVRRTMRRRVF | -1.18 ± 0.47
167 | NYSVWVIPVFMDEHIVLFMY | 5.8 ± 0.071
168 | NYSYMENYICQLACKTGEAG | 5.88 ± 0.084
169 | NYSYMSMHTSCLSKTPSSRA | -1.42 ± 1.1
170 | NYTNVRERGYMRVEYDMSIT | 0.202 ± 0.56
